Data taken from IntAct's records for PubMed 18256029.

Target: pdcd6_human PDCD6 (UniProt O75340)
Sequence (O75340 whole entry): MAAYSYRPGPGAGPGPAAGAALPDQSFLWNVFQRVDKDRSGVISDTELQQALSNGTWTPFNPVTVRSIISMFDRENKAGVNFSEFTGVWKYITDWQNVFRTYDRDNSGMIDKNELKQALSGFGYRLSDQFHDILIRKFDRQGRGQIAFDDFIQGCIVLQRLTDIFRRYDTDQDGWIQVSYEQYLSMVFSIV

Phospholipid scramblase 3 (Homo sapiens), Q9NRY6 P43A;P45A;P47A;P53A, sequence (Q9NRY6 whole entry P43A/P45A/P47A/P53A): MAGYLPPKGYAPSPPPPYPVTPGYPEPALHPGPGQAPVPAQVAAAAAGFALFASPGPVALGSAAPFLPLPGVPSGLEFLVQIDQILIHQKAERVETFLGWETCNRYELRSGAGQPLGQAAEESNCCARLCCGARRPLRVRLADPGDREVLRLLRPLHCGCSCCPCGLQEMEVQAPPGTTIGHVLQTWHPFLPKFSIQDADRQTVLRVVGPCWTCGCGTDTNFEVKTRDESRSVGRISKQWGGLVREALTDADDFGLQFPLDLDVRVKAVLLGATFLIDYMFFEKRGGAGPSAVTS
Phospholipid scramblase 3 (Homo sapiens), Q9NRY6 F49L, sequence (Q9NRY6 whole entry F49L): as the sequence (Q9NRY6 whole entry P43A/P45A/P47A/P53A) above, with A43P, A45P, A47P, F49L, A53P counted along it
Phospholipid scramblase 3 (Homo sapiens), Q9NRY6 F49A, sequence (Q9NRY6 whole entry F49A): as the sequence (Q9NRY6 whole entry P43A/P45A/P47A/P53A) above, with A43P, A45P, A47P, F49A, A53P counted along it
Phospholipid scramblase 3 (Homo sapiens), Q9NRY6 F49Y, sequence (Q9NRY6 whole entry F49Y): as the sequence (Q9NRY6 whole entry P43A/P45A/P47A/P53A) above, with A43P, A45P, A47P, F49Y, A53P counted along it
Phospholipid scramblase 3 (Homo sapiens), Q9NRY6 F49A;F52A, sequence (Q9NRY6 whole entry F49A/F52A): as the sequence (Q9NRY6 whole entry P43A/P45A/P47A/P53A) above, with A43P, A45P, A47P, F49A, F52A, A53P counted along it

Row | Substance | effect of a mutation on the interaction
1 | Phospholipid scramblase 3 (Homo sapiens), Q9NRY6 F49A | decreasing interaction
2 | Phospholipid scramblase 3 (Homo sapiens), Q9NRY6 F49A;F52A | disrupting interaction
3 | Phospholipid scramblase 3 (Homo sapiens), Q9NRY6 F49L | decreasing interaction
4 | Phospholipid scramblase 3 (Homo sapiens), Q9NRY6 F49Y | decreasing interaction
5 | Phospholipid scramblase 3 (Homo sapiens), Q9NRY6 P43A;P45A;P47A;P53A | decreasing interaction
